Experimental data as given in article PMC3282769, “New Insight into the Transcarbamylase Family: The Structure of Putrescine Transcarbamylase, a Key Catalyst for Fermentative Utilization of Agmatine” (PLoS ONE, 2012).

B1: putrescine transcarbamylase (PTC) from Enterococcus faecalis, wild type (enzyme)
chain: not shown
notes: putrescine transcarbamylase, Enterococcus faecalis, gene ef0732, UniProt Q837U7; the final PTC-PAPU model has residues 1 to 340 in each chain; also called wild-type PTC; WT
B2: Enterococcus faecalis PTC lacking the C-terminal helix (helix 13), amino acids 1-317 (domain or fragment)
chain: not shown
notes: putrescine transcarbamylase, Enterococcus faecalis SD10 genomic DNA, gene ef0732, amino acids 1-317 followed by a stop codon (stop codon at position 318); Cloned in pNIC28-Bsa4; Most of the protein eluted as hexamers, a small fraction as monomers; also called truncated PTC; Trun; source: E. coli BL21 (DE3) co-transformed with pGroESL, purified (Ni-based chromatography)

Target: the molecule itself
Test: SEC; analytical size exclusion chromatography, Superdex 200HR 5/150 GL, 20 µl of 10 mg/ml protein injected, 24°C, 50 mM Hepes pH 7.5, 0.25 M NaCl; column calibrated with protein standards

| Protein | stoichiometry N |
| --- | --- |
| B1 | 3 |
| B2 | 6 |
